This passage reports Kd results from paper PMC2882879 (Biochemistry, 2010).

In experiment [1] the target is LRP6 (Homo sapiens) (UniProt O75581). The experiment in a line: solid phase enzyme-linked binding assay. The conditions noted are these: cited from earlier work.
For experiment [2], the target named is human low-density lipoprotein receptor-related protein-5 on stably transfected ldl-7 (LDLR-deficient CHO) … (human, UniProt O75197 32-1615). The experiment in a line: radioligand binding.
Chain of human low-density lipoprotein receptor-related protein-5 on stably transfected ldl-7 (LDLR-deficient CHO) … (O75197 32-1615): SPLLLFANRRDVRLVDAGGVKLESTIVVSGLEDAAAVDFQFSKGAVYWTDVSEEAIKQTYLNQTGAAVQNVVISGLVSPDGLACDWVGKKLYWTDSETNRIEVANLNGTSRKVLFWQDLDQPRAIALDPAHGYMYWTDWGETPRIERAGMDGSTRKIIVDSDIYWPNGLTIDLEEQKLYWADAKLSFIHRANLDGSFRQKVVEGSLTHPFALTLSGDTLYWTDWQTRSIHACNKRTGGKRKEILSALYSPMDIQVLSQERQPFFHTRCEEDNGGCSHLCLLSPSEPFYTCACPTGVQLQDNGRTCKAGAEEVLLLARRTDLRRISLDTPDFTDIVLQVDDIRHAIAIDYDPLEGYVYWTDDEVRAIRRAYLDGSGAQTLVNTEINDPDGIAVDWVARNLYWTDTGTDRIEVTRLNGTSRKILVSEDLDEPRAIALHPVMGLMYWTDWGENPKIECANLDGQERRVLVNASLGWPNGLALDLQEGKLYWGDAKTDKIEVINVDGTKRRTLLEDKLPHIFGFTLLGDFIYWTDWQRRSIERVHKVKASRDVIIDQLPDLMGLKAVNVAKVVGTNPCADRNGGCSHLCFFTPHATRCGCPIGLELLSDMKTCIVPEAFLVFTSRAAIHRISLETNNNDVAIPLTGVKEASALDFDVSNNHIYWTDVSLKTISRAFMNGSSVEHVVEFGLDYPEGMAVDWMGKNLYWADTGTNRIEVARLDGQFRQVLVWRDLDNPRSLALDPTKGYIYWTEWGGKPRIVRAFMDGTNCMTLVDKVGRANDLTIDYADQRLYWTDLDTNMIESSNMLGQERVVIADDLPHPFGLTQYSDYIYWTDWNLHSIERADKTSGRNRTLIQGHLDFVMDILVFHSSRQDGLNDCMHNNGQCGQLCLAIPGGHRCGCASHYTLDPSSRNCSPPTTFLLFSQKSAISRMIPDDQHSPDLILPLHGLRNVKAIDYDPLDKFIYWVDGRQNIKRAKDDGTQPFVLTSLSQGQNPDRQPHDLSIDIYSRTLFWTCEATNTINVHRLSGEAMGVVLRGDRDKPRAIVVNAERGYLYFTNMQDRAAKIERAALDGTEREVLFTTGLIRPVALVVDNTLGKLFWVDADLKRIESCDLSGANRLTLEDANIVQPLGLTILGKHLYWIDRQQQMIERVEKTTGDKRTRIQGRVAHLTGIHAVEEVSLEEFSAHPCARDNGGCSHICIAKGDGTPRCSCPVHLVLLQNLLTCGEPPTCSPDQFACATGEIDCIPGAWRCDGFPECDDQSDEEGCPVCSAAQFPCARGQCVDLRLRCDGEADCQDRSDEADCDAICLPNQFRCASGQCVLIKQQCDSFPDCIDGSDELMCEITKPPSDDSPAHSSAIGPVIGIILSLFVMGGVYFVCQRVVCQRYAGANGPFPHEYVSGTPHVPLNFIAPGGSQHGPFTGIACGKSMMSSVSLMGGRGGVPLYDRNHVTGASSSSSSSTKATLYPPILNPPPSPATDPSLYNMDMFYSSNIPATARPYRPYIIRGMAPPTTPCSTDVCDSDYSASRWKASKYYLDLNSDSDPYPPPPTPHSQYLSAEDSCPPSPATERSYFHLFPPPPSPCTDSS

Chain of LRP6 (Homo sapiens) (O75581 20-1370): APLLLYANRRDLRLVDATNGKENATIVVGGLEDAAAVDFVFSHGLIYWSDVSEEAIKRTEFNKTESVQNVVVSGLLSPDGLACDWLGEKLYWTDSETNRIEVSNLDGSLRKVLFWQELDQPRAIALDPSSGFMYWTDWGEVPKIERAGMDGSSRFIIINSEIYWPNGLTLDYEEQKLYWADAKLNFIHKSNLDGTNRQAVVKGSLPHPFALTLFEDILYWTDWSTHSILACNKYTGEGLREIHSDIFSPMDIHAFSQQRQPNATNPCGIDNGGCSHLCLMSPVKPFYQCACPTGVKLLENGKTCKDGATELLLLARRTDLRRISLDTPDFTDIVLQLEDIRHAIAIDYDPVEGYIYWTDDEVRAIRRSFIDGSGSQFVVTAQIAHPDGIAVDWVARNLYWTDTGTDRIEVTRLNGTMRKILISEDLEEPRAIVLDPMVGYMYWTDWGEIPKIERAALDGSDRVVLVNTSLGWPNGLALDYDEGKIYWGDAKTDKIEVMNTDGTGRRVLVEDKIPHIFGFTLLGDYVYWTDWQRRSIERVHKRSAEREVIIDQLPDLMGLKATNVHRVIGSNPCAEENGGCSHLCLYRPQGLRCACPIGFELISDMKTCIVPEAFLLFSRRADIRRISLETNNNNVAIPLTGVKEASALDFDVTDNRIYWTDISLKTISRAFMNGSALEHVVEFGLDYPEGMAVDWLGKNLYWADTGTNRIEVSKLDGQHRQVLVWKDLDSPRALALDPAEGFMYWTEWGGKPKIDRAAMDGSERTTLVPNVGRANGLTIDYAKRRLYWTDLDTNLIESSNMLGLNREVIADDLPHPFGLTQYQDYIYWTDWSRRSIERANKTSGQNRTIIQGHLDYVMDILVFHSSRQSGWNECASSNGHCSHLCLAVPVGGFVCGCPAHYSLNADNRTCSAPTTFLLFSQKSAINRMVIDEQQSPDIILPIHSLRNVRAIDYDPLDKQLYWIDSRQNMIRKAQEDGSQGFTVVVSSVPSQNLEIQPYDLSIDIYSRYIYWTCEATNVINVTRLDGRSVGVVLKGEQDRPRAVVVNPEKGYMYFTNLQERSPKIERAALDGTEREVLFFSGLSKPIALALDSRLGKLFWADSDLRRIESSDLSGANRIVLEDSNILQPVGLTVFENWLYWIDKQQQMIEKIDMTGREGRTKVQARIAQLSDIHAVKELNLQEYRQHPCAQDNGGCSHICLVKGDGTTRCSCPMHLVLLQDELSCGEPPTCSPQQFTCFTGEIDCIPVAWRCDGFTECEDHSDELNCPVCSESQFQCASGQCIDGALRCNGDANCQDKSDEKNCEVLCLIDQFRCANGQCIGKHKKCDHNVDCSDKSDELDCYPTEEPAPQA

With Rspo1 (from UniProt Q2MKA7), the Kd in experiment [1] is 1.2 nM.

B1: recombinant mouse Mesd protein (natural protein, UniProt Q9ERE7 30-224, looked up)
chain: ADTPGEATPPPRKKKDIRDYNDADMARLLEQWEKDDDIEEGDLPEHKRPSAPIDFSKLDPGKPESILKMTKKGKTLMMFVTVSGNPTEKETEEITSLWQGSLFNANYDVQRFIVGSDRAIFMLRDGSYAWEIKDFLVSQDRCAEVTLEGQMYPGKGGGSKEKNKTKPEKAKKKEGDPKPRASKEDNRAGSRREDL
modifications: 125I-iodinated (IODO-GEN method) where used as radioligand; unlabelled where used as competitor
As to B1, the Kd in experiment [2] was 3.3 nM.
